Positions count from the first letter of the chain named.
B1: CoV2-YD-10 (VHH)
VHH: QVQLVESGGDLVQPGGSLRLSCAASGFTFSTYDMGWFRQGPGKEREFVAQIAPNGITTYYADSVKGRFTISRDNAKRMVFLQMNSLKPEDTAVYFCAVDLAPWGSLKLRTNPARGQGTQVTVS
B2: CoV2-YD-14 (VHH)
VHH: QVQLVESGGGLVQAGGSLRLSCSASGNTFSTYSLSWYRQAPGKQREFVAAISSGGSTSYANSVKGRFSISRDNAKKTMYLQMNSLKPEDTAVYYCYVVTTLMDYWGQGTQVTVS
B3: CoV2-YD-11 (VHH)
VHH: QVQLVESGGGLVQAGGSLRLSCVVSGTTFSRYDMGWYRQAPGKARETVATISRSGTTNYAYFVKGRFTITRDNAKNTVYLQMNSLKPEDTAVYYCYIFGLDYWGQGTQVTVS
B4: CoV2-YD-13 (VHH)
VHH: QVQLVESGGGLVQAGGSLRLSCAASGFTFDDYAIGWFRQAPGKEREGVSCISSSGGFTNYADSVKGRFTISSDNAKNTVYLQMNSLKPEDTAVYYCAVVVNGYGLDEWAYDYWGQGTQVTVS
B5: Rescue-1 (VHH)
VHH: DVQLVESGGGLVQAGDSLRLSCTASGRTFTTNAMGWFRQAPGKEREFVAAITWSYGTTYYSDPVEGRFTISRDNAKNTVYLQMNSLKPEDTAVYYCFYERLAWDTSTYWGQGTQVTVS
B6: Rescue-2 (VHH)
VHH: B5 VHH with T52S, S54N, G56D
B7: Rescue-3 (VHH)
VHH: B5 VHH with T52S, S54N, Y55S, E65K
B8: CoV2-YD-5 (VHH)
VHH: QVQLVESGGGLVQAGGSLRLSCVASGTTISTYNLLWFRQAPGQQREWVASISSGGDTSYAGSVKGRFTISRDNTENTMYLQMNSLKPEDTAVYYCHGANAAHGMDYWGKGTQVTVS
B9: CoV2-YD-35 (VHH)
VHH: DVQLVESGGGLVQAGDSLRLSCTASGRTFTTNAMGWFRQAPGKEREFVAAISWSYGTTYYSDPVEGRFTISRSNAKNTVYLQMNSLKPDDTAVYYCTLRSRFNAAAWTTEAAFDYWGQGTQVTVS
B10: CoV2-YD-38 (VHH)
VHH: B9 VHH with T23A, S54N, Y55S, E65K, S73D, D89G, A105Y, A111N
B11: CoV2-YD-36 (VHH)
VHH: B9 VHH with D1Q, S52T
B12: CoV2-YD-37 (VHH)
VHH: B9 VHH with S54N, G56D
B13: CoV2-YD-12 (VHH)
VHH: QVQLVESGGGLVQAGGSLRLSCAASGSTFSRLNILWWRQAAGKPREWVATSTDGGTRNYAAAVKGRFTISRDNAKNTVYLQMNSLKPEDTAVYYCYTPDYWGQGTQVTVS

target: T1, SARS-CoV-2 Spike receptor-binding domain (RBD), original strain (SARS-CoV-2, original strain, UniProt P0DTC2); assay: SPR; settings: both partners purified

Q: Does B1 bind?
A: binds

target: T1, SARS-CoV-2 Spike receptor-binding …; assay: not given; settings: not given

Q: How did the Kd turn out when B2 was run?
A: 152 pM

Q: How did the Kd turn out when B3 was run?
A: 179 pM

Q: With B4 as the binder, how does the Kd read?
A: 2430 pM

Q: With B5 as the binder, how does the Kd read?
A: 50900 pM

Q: With B6 as the binder, how does the Kd read?
A: 26800 pM

Q: For B7, which Kd is on record?
A: 24900 pM

Q: For B8, which Kd is on record?
A: 114 pM

Q: For B9, which Kd is on record?
A: 140 pM

Q: How did the Kd turn out when B10 was run?
A: 561 pM

Q: B11 was tested. Which Kd did it give?
A: 154 pM

Q: How did the Kd turn out when B12 was run?
A: 411 pM

Q: With B13 as the binder, how does the Kd read?
A: 145 pM
